We go through 3 substances from publication PMC7491321.

This series relates to FopA (Salmonella enterica serovar Typhimurium SL1344 (plasmid pCol1B9)). As to the kind of experiment: EMSA. On the technique in general: In EMSA bound probe runs differently from free probe, usually more slowly.

By Kd is commonly meant a measure of binding affinity in units of concentration. As to Inc RNA, the Kd stood at 1000 nM.
In turn, Inc-repZ complex yielded a Kd of 1000 nM.
In the case of repZ 5'UTR fragment, the Kd was 1000 nM.
